Five molecules from patent publication EP2450379B1 (Crucell Holland B.V., dated 2015) can be followed below.

The target in assay [1] is T1, soluble recombinant HA (sHA) of H5N1TV (influenza A virus A/Vietnam/1194/2004 …, UniProt Q6J8F6 17-528). The experiment in a line: immunoblot, reducing SDS-PAGE.
Assay [2] deals with T1, soluble recombinant HA (sHA) of H5N1TV. The experiment in a line: immunoblot (data not shown).

B1: CR6323 (antibody, V domains shown)
VH: EVQLVESGAEVKKPGSSVKVSCKASGGTFSSYGISWVRQAPGQGLEWMGDIIGMFGSTNYAQNFQGRLTITADESTSTAYMELSSLRSEDTAVYYCARSSGYYPAYLPHWGQGTLVTVSS
VL: not shown
notes: human IgG1
With B1, in assay [1], the binding result is recorded as “binds”.

B2: CR6141 (antibody, V domains shown)
VH: EVQLVQSGAEVKKPGASVKVSCKASGYTFTGYYVYWVRQAPGQGLEWMGWISAYNGNTNYAQKFQGRVTITADKSTSTAYMELSSLRSEDTAVYYCARSRSLDVWGQGTTVTVSS
VL: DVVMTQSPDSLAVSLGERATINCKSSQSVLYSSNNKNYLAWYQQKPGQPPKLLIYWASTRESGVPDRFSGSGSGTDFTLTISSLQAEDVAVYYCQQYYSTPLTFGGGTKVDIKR
notes: human IgG1
With B2, the binding result in assay [2] is “binds”.

B3: CR6307 (antibody, V domains shown)
VH: QVQLVQSGGGLVKPGGSLRLSCAASGFTFSSYSMNWVRQAPGKGLEWVSSISSSSSYIYYVDSVKGRFTISRDNAKNSLYLQMNSLRAEDTAVYYCARGGGSYGAYEGFDYWGQGTLVTVSS
VL: EIVLTQSPGTLSLSPGERATLSCRASQRVSSYLAWYQQKPGQAPRLLIYGASTRAAGIPDRFSGSGSGTDFTLTISRLEPEDSAVYYCQQYGRTPLTFGGGTKVEIKR
notes: human IgG1
For B3, in assay [1], the binding result is recorded as “binds”.

B4: CR6296 (antibody, V domains shown)
VH: EVQLVETGAEVKKPGASVKVSCKASGYTFTSYYMHWVRQAPGQGLEWMGWINPNSGGTNYAQKFQGRVTMTRDTSISTAYMELSRLRSDDTAVYYCAREGKWGPQAAFDIWGQGTMVTVSS
VL: EIVMTQSPGTLSLSPGERATLSCRASQSVSSSYLAWYQQKPGQAPRLLIYDASSRATDIPDRFSGSGSGTDFTLTISRLEPEDFAVYYCQQYGSSLWTFGQGTKVEIKR
notes: human IgG1
B4: in assay [2], the binding result was “binds”.

B5: CR6301 (antibody, V domains shown)
VH: EVQLVESGGGLVQPGGSLRLSCAASGFTFSIYAMSWVRQAPGKGLEWVSAISSSGDSTYYADSVKGRFTISRDNARNTLYLQMNSLRAEDTAVYYCARAYGYTFDPWGQGTLVTVSS
VL: not shown
notes: human IgG1
As for B5, the binding result in assay [2] is reported as “binds”.
